Reference: patent US20150359847A1, “METHOD AND COMPOSITION FOR CONFERRING NEUROPROTECTION” (BLOOD SYSTEMS RESEARCH INSTITUTE, priority 2014, published 2015)

Key:
MMP-9 [1] = molecular target: T1, MMP-9 (Homo sapiens, UniProt P14780); assay: cell-based or functional assay
Target sequence in this assay (P14780 107-707 limits assumed): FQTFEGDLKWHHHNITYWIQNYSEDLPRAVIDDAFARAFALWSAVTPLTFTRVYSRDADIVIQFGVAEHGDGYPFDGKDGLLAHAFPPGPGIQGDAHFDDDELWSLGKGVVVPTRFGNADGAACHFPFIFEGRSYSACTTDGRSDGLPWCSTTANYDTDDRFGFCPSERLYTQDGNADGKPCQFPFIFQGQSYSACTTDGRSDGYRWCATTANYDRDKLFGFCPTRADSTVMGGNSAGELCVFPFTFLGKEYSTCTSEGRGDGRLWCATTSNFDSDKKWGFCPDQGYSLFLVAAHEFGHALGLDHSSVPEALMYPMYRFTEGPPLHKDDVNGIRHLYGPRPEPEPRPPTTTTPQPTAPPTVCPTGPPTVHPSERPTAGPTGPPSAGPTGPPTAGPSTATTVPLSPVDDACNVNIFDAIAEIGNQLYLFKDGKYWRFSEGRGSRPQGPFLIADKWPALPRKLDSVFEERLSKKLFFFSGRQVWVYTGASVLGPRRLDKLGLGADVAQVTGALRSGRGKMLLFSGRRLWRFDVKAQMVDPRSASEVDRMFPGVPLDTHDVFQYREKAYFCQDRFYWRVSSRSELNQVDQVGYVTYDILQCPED

MMP-2 [2] = molecular target: MMP-2 (UniProt P08253); assay: cell-based or functional assay
[3] = test system: phospho-AKT(Ser473) in SH-SY5Y cells; assay: Akt (Ser473) phosphorylation in differentiated SH-SY5Y cells (antibody array, western blot, Phosflow); format: cell-based, human
Procedure: SH-SY5Y cells were obtained from ATCC (Cat# CRL-2266, Manassas, Va.) and were cultured in DMEM and 10% FBS up to passage 10. For differentiation of SH-SY5Y cells into a neuronal phenotype, cells were first plated in DMEEM+10% FBS for 24 hrs before exchanging media in DMEM+1% FBS 10 μM retinoic acid. Differentiation was performed for 3 days before experimentation. Hippocampal neurons were prepared according to the protocol by Beaudoin et al. (Nature Protocols 2012; 7(9):1741-1754) with minor modifications. In brief, after trypsin digestion of hippocampi isolated from P1 mouse pups single cell suspensions was created by trituration and plated onto Biocoat™ poly-D-lysine coated 12-well plates (Cat#354470, BD Biosciences, San Jose, Calif.). 2 pups were used per well and cell suspensions were incubated for 10 minutes per well for a total of 6 wells. The serial incubation allowed for variation in cell densities applicable to different experiments but also contributed to the reduction in non-neuronal cells. Typically wells 1-2 were pooled for western blotting and wells 4-5 were used for imaging following treatments. After the initial plating cells were incubated for 2 hrs before media was completely exchanged for maintenance media that was supplemented with 1 μM of the anti-mitotic cytosine arabinoside in order to further reduce non-neuronal cells. For western blot, cells were cultured for 7 days before experimentation. Half of maintenance media was exchanged on day 2 and day 5. For morphology experiments, treatments were initiated upon the introduction of maintenance media and was renewed 48 hrs later for a further 24 hrs of treatment. Experiments were terminated by fixation for 20 minutes with 4% paraformaldehyde after which cells were stored at 4° C. in PBS prior to staining protocols.
(§1) Pathscan Antibody™ array kits were purchased from Cell Signaling Technologies (Danvers, Mass.). PathScan® RTK signaling antibody array kit (Fluorescent Readout, Cat#7949) and PathScan™ Akt signaling antibody array kit (Fluorescent Readout, Cat#9700) were performed as per manufacturer's instructions. Imaging was performed on a LI-COR Odyssey™ infrared scanner and pixel densities measured by in house LI-COR Image™ suite software.
After experimentation, SH-SY5Y cells were detached from culture ware via trypsin digestion and rapidly mixed with an equal volume of BD cytofix fixation buffer (Cat#554655. BD Biosciences, San Jose, Calif.). After wash steps with PBS cells were permeabilized with BD phosflow Perm Buffer III (Cat#558050. BD Biosciences, San Jose, Calif.) and incubated on ice for 30 mins. After washing in BD stain buffer (Cat#554657. BD Biosciences, San Jose, Calif.) cells were counted and 1×10^6 cells were used antibody incubation. Negative IgG compensation control was obtained using ABC control beads (Cat# A10344. Life Technologies, Grand Island, N.Y.). Antibody incubations were conducted for 30 mins at RT in the dark. Following wash steps the volume was adjusted to 500 μl and results obtained using and LSR II flow cytometer and analyzed using Flowjo™ cytometric analytical software version 8.8.7.
(§2) Cell lysates for western blotting were prepared with RIPA buffer (Cat#89900. Thermofisher Scientific, Rockford, Ill.) supplemented with phosphatase inhibitor cocktail 2 (Cat# P5726. Sigma, St Louis, Mo.), phosphatase inhibitor cocktail 3 (Cat# P0044. Sigma, St Louis, Mo.) and complete protease inhibitor (Cat#1862209. Thermofisher Scientific, Rockford, Ill.). Complete homogenization was ensured by brief sonication using a Branson Sonifier 150, (Branson Ultrasonics Corporation, Danbury, Conn.). Protein content was quantified with a Pierce BCA protein assay kit per manufacturer's instructions (Cat#23225. Thermofisher Scientific, Rockford, Ill.).
(§3) Lysates was analyzed in conjuncture with the LI-COR Odyssey™ infra-red imaging system. […]

MMP-2 [4] = molecular target: T2, MMP-2 (Homo sapiens, UniProt P08253); assay: SensoLyte Fluorimetric MMP-2 Activity Assay; format: biochemical; conditions: GM6001
T2 sequence (P08253 110-660): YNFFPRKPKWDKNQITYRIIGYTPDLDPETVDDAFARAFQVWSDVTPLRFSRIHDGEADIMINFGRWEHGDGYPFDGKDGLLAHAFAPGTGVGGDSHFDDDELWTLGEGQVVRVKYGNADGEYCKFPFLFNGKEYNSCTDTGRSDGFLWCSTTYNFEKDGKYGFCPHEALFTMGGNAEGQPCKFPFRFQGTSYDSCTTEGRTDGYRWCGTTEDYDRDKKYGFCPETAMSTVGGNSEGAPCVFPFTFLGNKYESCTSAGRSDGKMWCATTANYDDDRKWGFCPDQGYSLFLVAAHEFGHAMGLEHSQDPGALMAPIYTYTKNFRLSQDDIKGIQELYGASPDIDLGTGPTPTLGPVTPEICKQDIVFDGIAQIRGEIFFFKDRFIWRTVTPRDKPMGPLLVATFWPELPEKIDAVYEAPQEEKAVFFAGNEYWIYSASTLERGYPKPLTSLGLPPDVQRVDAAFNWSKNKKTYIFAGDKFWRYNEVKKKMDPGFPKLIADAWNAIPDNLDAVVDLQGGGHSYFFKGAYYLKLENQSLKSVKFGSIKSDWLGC
Text: (§4) SensoLyte Fluorimetric MMP-2 Activity Assay Kit™ (Cat#71151) and SensoLyte Fluorimetric MMP-9 Activity Assay Kit™ (Cat#71155) were purchased from AnaSpec (Fremont, Calif.) and performed per manufacturer's instructions.

[5] = test system: S6 Ribosomal Protein (S235/236) in SH-SY5Y cells; assay: S6 Ribosomal Protein (S235/236) phosphorylation in SH-SY5Y cells; format: cell-based, human; conditions: 10 μM GM6001, 15 minutes
Procedure: (§5) SH-SY5Y cells were obtained from ATCC (Cat# CRL-2266, Manassas, Va.) and were cultured in DMEM and 10% FBS up to passage 10. For differentiation of SH-SY5Y cells into a neuronal phenotype, cells were first plated in DMEEM+10% FBS for 24 hrs before exchanging media in DMEM+1% FBS 10 μM retinoic acid. Differentiation was performed for 3 days before experimentation. Hippocampal neurons were prepared according to the protocol by Beaudoin et al. (Nature Protocols 2012; 7(9):1741-1754) with minor modifications. In brief, after trypsin digestion of hippocampi isolated from P1 mouse pups single cell suspensions was created by trituration and plated onto Biocoat™ poly-D-lysine coated 12-well plates (Cat#354470, BD Biosciences, San Jose, Calif.). 2 pups were used per well and cell suspensions were incubated for 10 minutes per well for a total of 6 wells. The serial incubation allowed for variation in cell densities applicable to different experiments but also contributed to the reduction in non-neuronal cells. […]
as §1
as §2, with “Complete homogenization was ensured by brief sonication using a Branson Sonifier 150, (Branson Ultrasonics Corporation, Danbury, Conn.).” left out
as §3

MMP-9 [6] = molecular target: T1, MMP-9; assay: SensoLyte Fluorimetric MMP-9 Activity Assay; format: biochemical; conditions: GM6001
Text: as §4
Target sequence in this assay (P14780 94-707, species assumed): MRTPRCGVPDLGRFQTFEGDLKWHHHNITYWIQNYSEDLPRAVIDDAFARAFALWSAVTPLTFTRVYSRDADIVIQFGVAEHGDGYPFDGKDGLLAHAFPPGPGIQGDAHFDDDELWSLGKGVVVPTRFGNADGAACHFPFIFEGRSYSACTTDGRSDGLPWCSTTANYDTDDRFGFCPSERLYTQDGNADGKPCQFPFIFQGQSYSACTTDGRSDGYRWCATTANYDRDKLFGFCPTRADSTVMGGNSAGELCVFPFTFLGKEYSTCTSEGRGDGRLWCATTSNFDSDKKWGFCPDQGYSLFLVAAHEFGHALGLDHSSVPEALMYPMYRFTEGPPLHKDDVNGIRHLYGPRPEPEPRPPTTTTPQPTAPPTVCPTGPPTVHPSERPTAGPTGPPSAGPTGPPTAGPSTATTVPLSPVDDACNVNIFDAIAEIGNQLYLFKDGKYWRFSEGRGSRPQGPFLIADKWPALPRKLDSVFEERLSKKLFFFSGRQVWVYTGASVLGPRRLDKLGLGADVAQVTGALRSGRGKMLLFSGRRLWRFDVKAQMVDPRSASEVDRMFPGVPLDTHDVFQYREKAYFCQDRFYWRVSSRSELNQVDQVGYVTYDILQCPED

mTOR = assay: Real-time PCR of mTOR message in transfected hippocampal neurons; format: cell-based, mouse; conditions: 7 days post-transfection; during TIMP3 treatment; relative to actin
Procedure: Primary hippocampal neuron suspensions were transfected post-trituration and prior to plating. Neurons were ‘Nucleofected’ using a 4D-Nucleofector™ System (Lonza, Walkersville, Md.) in conjunction with a P3 Primary Cell 4D-Nucleofector® X Kit. In brief, 5×10^5 cells were nucleofected with 1.5 μg DNA resuspended in 100 μl of P3 solution after which cells were plated and cultured per normal protocol.
Plasmid vector pENN.AAV.U6.ShRLuc.CMV.eGFP.SV40 was provided by the Penn vector core, University of Pennsylvania, (Philadelphia, Pa.). mTOR shRNA sequence was chosen based on the previous publication by Jaworrski et al (43). Sequence ‘mTOR3071’ was chosen based on complete sequence identity between rat and mouse genes. Scrambled sequence (SCR) was designed using the online scramble design tool by genscript on the World Wide Web at genscript.com/ssl-bin/app/scramble. […]
Cells were lysed using 0.7 mL of QIAzol™ reagent (Qiagen, Valencia Calif.), followed by 15 min centrifugation at 12,000 g at 4° C. […] Quantitative real-time PCR measuring mouse-specific mTOR and Beta-actin (ACTB) genes using Taqman™ real time PCR was performed using the ABI ViiA 7 Real-Time PCR System™. Raw cycle threshold (Ct) numbers of amplified mTOR gene products were normalized to the housekeeping gene ACTB to control for cDNA input amounts. mRNA relative copy number was determined using the comparative Ct method.

hippocampal neurons = assay: Sholl analysis of isolated hippocampal neurons; format: cell-based, mouse; conditions: shRNA vs scrambled sequence (SCR); 7 days post-transfection
Procedure: as §5
Sholl analysis on processed images of isolated hippocampal neurons was conducted using the Fiji derivation of Image J. (Hypertext Transfer Protocol://Fiji.sc.Fiji). […] After neurites had been traced the images were rendered as an analyzed skeleton and Sholl analysis was run on the image from the Analyze menu option.

[7] = Brain distribution of IV infra-red tagged TIMP3 post-TBI; format: in vivo, mouse; conditions: coronal section through impact site, n=2
Text: FIGS. 2A-2B are graphical representations depicting various data relating to intravenous TIMP3 which preserves vulnerable neuronal populations in the hippocampus. (A) Coronal section through the impact site showing target coverage following IV administration of an infra-red tagged TIMP3. Spectrum bar indicates the intensity of the distribution. […] (B) NeuN staining of post-mitotic mature neurons 7 days post-TBI. Representative photomi-crographs of ipsilateral hippocampi from the 3 groups show NeuN staining in the granule cell layer (GCL) and Hilus (HL) of the dentate gyrus. Highlighted area panels show enhanced view of NeuN+ve hilar interneurons. Scale bar=100 μm. Lower panel, quantification of NeuN+ve neurons in the HL. n=4, 4 section per animal, mean±s.e.m. […] (C) DCX staining of neural progenitors/immature neurons 7 days post-TBI. Representative photomi-crographs of ipsilateral hippocampi from the 3 groups showing DCX staining in the subgranule zone (SGZ) of the dentate gyrus. Highlighted area panels show enhanced view of DCX positive immature neurons. […] Lower panel, quantification of DCX+ve neurons, n=4, 4 sections per animal, mean±s.e.m.
Subsequently, the inventors sought to determine the effects IV TIMP3 post-TBI on hippocampal neuronal populations. […] To further examine the effects of TIMP3 on neuronal cells the presence of neural progenitors was quantified by DCX staining. […]

With “Recombinant TIMP3 (tissue inhibitor of matrix metalloproteinase-3) (from UniProt P35625 24-211)” the Sensolyte FRET assay of MMP-9 enzyme activity; TIMP3 concentration that gives full inhibition (MMP-9 [1]) was 1 µg/mL and the Sensolyte FRET assay of MMP-2 enzyme activity; TIMP3 concentration that gives full inhibition (MMP-2 [2]) was 1 µg/mL.

For CNC(=O)[C@H](Cc1c[nH]c2ccccc12)NC(=O)[C@@H](CC(=O)NO)CC(C)C [GM6001, reference compound], the “phosphorylation of Akt (Ser473), western blot” value ([3]; 10 μM GM6001, 15 minutes) was “did not result in increased phosphorylation”, the “MMP-2 inhibition (Sensolyte FRET assay)” value (MMP-2 [4]) was “complete MMP inhibition” and the “phosphorylation of S6RP (S235/236), western blot” value [5] was “did not result in increased phosphorylation”. For the same molecule, the “MMP-9 inhibition (Sensolyte FRET assay)” value (MMP-9 [6]) was “complete MMP inhibition”.

For CO[C@H]1C[C@@H]2CC[C@@H](C)[C@@](O)(O2)C(=O)C(=O)N2CCCC[C@H]2C(=O)O[C@H]([C@H](C)C[C@@H]2CC[C@@H](O)[C@H](OC)C2)CC(=O)[C@H](C)/C=C(\C)[C@@H](O)[C@@H](OC)C(=O)[C@H](C)C[C@H](C)/C=C/C=C/C=C/1C [rapamycin, Rapamycin, reference compound], the “Akt (Ser473) phosphorylation with rapamycin, western blot” value ([3]; rapamycin pre-treatment with TIMP3) was “not inhibited”.

B1: shRNA against mTOR: shRNA sequence mTOR3071 (SEQ ID NO: 1) cloned into plasmid pENN.AAV.U6.ShRLuc.CMV.eGFP.SV40 (nucleic acid)
guide: GGAUCCGAGCCACATCCGTCCCTACTTCAAGAGAGTAGGGACGGATGTGGCTCTTTTTGAAUCC
With B1 the “reduction of mTOR message levels compared to SCR” value (mTOR) was “approximately 50%” and the “effect on TIMP3-promoted neurite outgrowth (Sholl analysis)” value (hippocampal neurons) was “significantly inhibited the effects of TIMP3 on neurite outgrowth”.

B2: infra-red tagged TIMP3: Infra-red tagged version of recombinant TIMP3, obtained from Amgen Inc. (protein, UniProt P35625 24-211, looked up)
Metalloproteinase inhibitor 3: CTCSPSHPQDAFCNSDIVIRAKVVGKKLVKEGPFGTLVYTIKQMKMYRGFTKMPHVQYIHTEASESLCGLKLEVNKYQYLLTGRVYDGKMYTGLCNFVERWDQLTLSQRKGLNYRYHLGCNCKIKSCYYLPCFVTSKNECLWTDMLSNFGYPGYQSKHYACIRQKGGYCSWYRGWAPPDKSIINATDP
modifications: infra-red dye label
For B2, the “penetrance into the ipsilateral hippocampus after IV administration” value [7] was “penentrance of TIMP3 into the ipsilateral hippocampus”.
